{"source": "patent US8247168B2", "about": "“Regulation of gene expression by protein methylation” (University of Southern California, priority 1998, dated 2012)", "molecules": {"B1": {"name": "GST-CARM1: glutathione S-transferase fusion protein of CARM1 produced in E. coli (protein)", "chain": "AAAATAVGPGAGSAGVAGPGGAGPCATVSVFPGARLLTIGDANGEIQRHAEQQALRLEVRAGPDAAGIALYSHEDVCVFKCSVSRETECSRVGRQSFIITLGCNSVLIQFATPHDFCSFYNILKTCRGHTLERSVFSERTEESSAVQYFQFYGYLSQQQNMMQDYVRTGTYQRAILQNHTDFKDKIVLDVGCGSGILSFFAAQAGARKIYAVEASTMAQHAEVLVKSNNLTDRIVVIPGKVEEVSLPEQVDIIISEPMGYMLFNERMLESYLHAKKYLKPSGNMFPTIGDVHLAPFTDEQLYMEQFTKANFRYQPSFHGVDLSALRGAAVDEYFRQPVVDTFDIRILMAKSVKYTVNFLEAKEGDLHRIEIPFKFHMLHSGLVHGLAFWFDVAFIGSIMTVWLSTAPTEPLTHWYQVRCLFQSPLFAKAGDTLSGTCLLIANKRQSYDISIVAQVDQTGSKSSNLLDLKNPFFRYTGTTPSPPPGSHYTSPSENMWNTGSTYNLSSGVAVAGMPTAYDLSSVIAGGSSVGHNNLIPLANTGIVNHTHSRMGSIMSTGIVQGSSGAQGGGGSSSAHYAVNNQFTMGGPAISMASPMSIPTNTMHYGS", "modifications": "left off: a dimerising Fc or GST", "notes": "glutathione S-transferase fusion protein of CARM1 produced in E. coli"}}, "key": {"[1]": {"system": "androgen receptor, estrogen receptor, and thyroid hormone receptor", "assay": "Reporter gene activation by hormone-activated nuclear receptors in transiently transfected CV-1 cells", "type": "cell-based", "conditions": "co-expression of GRIP1 with NR, CV-1 cells, hormone present (lane d)", "procedure": "(A) Transient transfection assays with CV-1 cells were performed as in FIG. 5 with 0.5 μg of GK1 reporter gene and 0.5 μg of each of the indicated vectors. (B) CV-1 cells were transiently transfected as in FIG. 5 with the following vectors, as indicated: 0.5 μg of nuclear receptor expression vector pSVAR0 (Brinkmann, A. O. et al. (1989) J. Steroid Biochem. Molec. Biol. 34:307) expressing AR, pHE0 (Green, S. et al. (1988) Nucleic Acids Res. 16:369) expressing ER, or pCMX.hTRβ1 (Feng, W. et al. (1998) Science 280:1747) expressing TR; 0.5 μg of a luciferase reporter gene with an appropriate promoter, MMTV promoter for AR, or MMTV promoter with the native glucocorticoid response elements replaced by a single estrogen response element for ER or palindromic thyroid hormone response element for TR (Umesono, K. and R. M. Evans (1989) Cell 57:1139); 0.5 μg of pSG5.HA-GRIP1; and 0.5 μg of pSG5.HA-CARM1 or pSG5.HA-CARM1 (VLD mutant). Transfection efficiency was monitored by using βgalactosidase activity expressed from 0.1 μg of co-transfected pCMV-βgal vector (Hong, H. et al. (1996) Proc. Natl. Acad. Sci. USA 93:4948-4952) as an internal control. After transfection, cells were grown in charcoal-treated serum; where indicated 20 nM hormone (H), i.e. dihydrotestosterone for AR, estradiol for ER, or triiodothyronine for TR, was included during the last 40 h of culture. […]"}, "hnRNPA1": {"system": "hnRNPA1", "assay": "Methylation of hnRNP A1, SDS-PAGE and fluorography (FIG. 8C)", "type": "biochemical, human", "conditions": "0.083 mg/ml hnRNP-A1", "procedure": "CARM1 and PRMT1 have different protein methyltransferase substrate specificities. CARM1 methylates histone H3, whereas PRMT1 methylates histone H4. […] (A,B) Calf thymus histones (Boehringer Mannheim) were incubated for 30 min at 30° C. in 32.5 μl reactions containing 20 mM Tris-Cl, 0.2 M NaCl, 4 mM EDTA, pH 8.0, 0.32 mg/ml individual histone (2a, 2b, 3, or 4) or 1.3 mg/ml mixed histone (M), 0.037 mg/ml GST-CARM1 or GST-PRMT1, and 7 μM S-adenosyl-L-[methyl-^3H]methionine (specific activity of 14.7 Ci/mmol). Reactions were stopped by addition of SDS-NuPAGE sample buffer (Novex), and 40% of each stopped reaction was then subjected to SDS-PAGE in 4-12% NuPAGE Bis-Tris gradient gels (Novex) using the Na-MES running buffer. Gels were stained with Coomassie Blue R-250 (A), and then subjected to fluorography (Chamberlin, M. (1978) Anal. Biochem. 98:132) for 12 h at −70° C. on sensitized Kodak XAR-5 film (B). Molecular weight markers (MW) are shown at left. Concentrations of GST fusion proteins were determined in comparison with bovine serum albumin standards (Sigma) by SDS polyacrylamide gel electrophoresis and Coomassie Blue staining; it was assumed that bovine serum albumin stained twice as intensely as most other proteins. Concentrations of histones and hnRNP A1 were determined by the method of Lowry (Lowry, O. H. et al. (1951) J. Biol. Chem. 193:265). […]"}, "[2]": {"system": "mixed histones (calf thymus)", "assay": "Methyltransferase reaction with mixed histones, reversed-phase HPLC separation", "type": "biochemical", "conditions": "substrate mixed histones (2.7 mg/ml), enzyme 0.03-0.05 mg/ml"}, "[3]": {"system": "R1 peptide SEQ ID NO: 4 […]-NH2", "assay": "Methyltransferase reaction with R1 peptide substrate, reversed-phase HPLC separation", "type": "biochemical", "conditions": "substrate R1 peptide (120 μM); enzyme 0.03-0.05 mg/ml"}, "[4]": {"molecular_target": "T1, K1 peptide SEQ ID NO: 5 […]-NH2 (Mus musculus, UniProt Q9WVG6, W314R)", "T1 construct": "A 3.2-kb partial CARM1 cDNA clone with an open reading frame of 606 amino acids (CARM1(3-608)); made in house; host or cells: E. coli strain BL21", "T1 sequence (Q9WVG6 3-608 W314R)": "B1 chain", "assay": "Methyltransferase reaction with K1 peptide substrate, reversed-phase HPLC separation", "type": "biochemical", "conditions": "substrate K1 peptide (120 μM); enzyme 0.03-0.05 mg/ml"}}, "note": "Marks after values point to notes of the source that are not given here."}
{"molecule": "GRIP1: p160 nuclear receptor coactivator", "values": [{"measurement": "enhancement of reporter gene expression by the hormone-activated NR", "setting": "[1]", "value": "2 to 27", "unit": "fold"}]}
{"molecule": "PRMT1: related mammalian protein arginine methyltransferase [reference compound]", "values": [{"measurement": "methylation of hnRNPA1", "setting": "hnRNPA1", "value": "good substrate"}]}
{"molecule": "B1", "values": [{"measurement": "Methyltransferase specific activity", "setting": "[2]", "value": 971, "unit": "pmol/min/mg"}, {"measurement": "Methyltransferase specific activity", "setting": "[3]", "value": "21.6-54.5^a pmol/min/mg"}, {"measurement": "Methyltransferase specific activity", "setting": "[4]", "value": 0.7, "unit": "pmol/min/mg"}]}
